Experimental data taken from patent US20220073604A1 (ARGENX BVBA, published 2022).
One block for each molecule: values may come before it.

Key:
[1] = molecular target: human IL-6 (as added in the B9 and 7TD1 bioassays) (human) (UniProt P05231); assay: cell-based or functional assay
[2] = molecular target: human IL-6 (as added in the B9 and 7TD1 bioassays) (human) (UniProt P05231)
[3] = molecular target: IL-6 (bact-hIL-6, euk-hIL-6 and bact-cy IL-6; 'average binding' of Table 21); assay: average binding level in the off-rate screen (unit not given; n = 3)
[4] = molecular target: T1, bacterially produced cynomolgus monkey IL-6 (cynomolgus monkey, UniProt P79341 28-212, limits assumed); assay: off-rate of Fab 111A7 variant on bact-cy IL-6 (binding kinetics, SPR presumed; n = 3)
T1 construct: also called bact-cy IL-6; HIS-cyIL-6

[5] = molecular target: T1, bacterially produced cynomolgus monkey …; assay: off-rate of Fab 111A7 variant on bact-cy IL-6 (binding kinetics, SPR presumed; n = 5)
[6] = molecular target: IL-6 (bact-hIL-6, euk-hIL-6 and bact-cy IL-6; 'average binding' of Table 21); assay: average binding level in the off-rate screen (unit not given; n = 5)
[7] = molecular target: T2, human IL-6 (as added in the B9 and 7TD1 bioassays) (human, UniProt P05231 30-212); assay: cell-based or functional assay
[8] = molecular target: T2, human IL-6 (as added in the B9 and 7TD1 …); assay: cell-based or functional assay; remark: listed apart in the source
[9] = molecular target: T2, human IL-6 (as added in the B9 and 7TD1 …); assay: cell-based or functional assay; remark: listed apart in the source
human IL-6 = molecular target: T3, human IL-6 (human, UniProt P05231 30-212); assay: SPR; periplasmic fraction; average of the IL-6 channels; parameters: unit not given here
T3 construct: Used where the text says only IL-6 or human IL-6 (crystals: rh IL-6 from Immunotools; cell assays) and for values averaged over the bacterial and eukaryotic IL-6 channels; also called interleukin-6; rh IL-6

[10] = molecular target: T4, bacterially produced human IL-6 (human, UniProt P05231 30-212); assay: SPR; periplasmic fraction; ratio bact to euk IL-6
T4 construct: also called bactIL-6; prokaryotic IL-6
Method: (§1) From the washing phase the off-rate (kd) was determined, while from the injection phase the on-rate (ka) was calculated using the concentration and off-rate as parameters.

[11] = molecular target: T4, bacterially produced human IL-6; assay: SPR; periplasmic fraction
Method: as §1

[12] = molecular target: T5, eukaryotically produced human IL-6 (human, UniProt P05231 30-212); assay: SPR; periplasmic fraction
T5 construct: also called eukIL-6; Euk IL-6
Method: as §1

[13] = molecular target: T4, bacterially produced human IL-6; assay: SPR; purified Fab; IL-6 coated on CM5 chip
Method: as §1

[14] = molecular target: T5, eukaryotically produced human IL-6; assay: SPR; purified Fab; IL-6 coated on CM5 chip
Method: as §1

[15] = molecular target: T4, bacterially produced human IL-6; assay: SPR; purified Fab, 68 nM
[16] = molecular target: T5, eukaryotically produced human IL-6; assay: SPR; purified Fab, 68 nM
cynomolgus monkey IL-6 [17] = molecular target: T6, cynomolgus monkey IL-6 (cynomolgus monkey, UniProt P79341 28-212, limits assumed); assay: SPR; purified Fab, 68 nM
T6 construct: also called HIS-cyIL-6

[18] = molecular target: T4, bacterially produced human IL-6; assay: SPR; purified Fab
[19] = molecular target: T5, eukaryotically produced human IL-6; assay: SPR; purified Fab
cynomolgus monkey IL-6 [20] = molecular target: T6, cynomolgus monkey IL-6; assay: SPR; purified Fab
[21] = molecular target: T2, human IL-6 (as added in the B9 and 7TD1 …); assay: cell-based or functional assay; remark: listed apart in the source
[22] = molecular target: T4, bacterially produced human IL-6; assay: SPR; purified Fab; remark: listed apart in the source
[23] = molecular target: T5, eukaryotically produced human IL-6; assay: SPR; purified Fab; remark: listed apart in the source
[24] = molecular target: T4, bacterially produced human IL-6; assay: SPR; purified Fab; ratio bact to euk IL-6
[25] = molecular target: T4, bacterially produced human IL-6; assay: SPR; purified Fab over biotinylated IL-6 on streptavidin chip
Method: as §1

[26] = molecular target: human IL-6 (as added in the B9 and 7TD1 bioassays) (human) (UniProt P05231); assay: cell-based or functional assay; remark: listed apart in the source

Molecule: CNTO136 (benchmark anti-IL-6 antibody, humanized variant of CNTO328)
IC50, 7TD1 cells [1]: 0.19 pM
Potency relative to 68F2, 7TD1 cells [1]: 3.49
IC50 (read off the curve), B9 cell proliferation [2]: 0.2 pM

average binding [3]: 104
koff [4]: 0.000158 s⁻¹
B1: Fab 111A7 with the CDR3 methionine changed to Y (Fab, V domains shown)
VH: EVQLLESGGGLVQPGGSLRLSCAASGFTFSSYAMSWVRQAPGKGPEWVSRISAGGGSTYYGDSVKGRFTISRDNSKNTLYLQMNSLRAEDTAVYYCANRAGWGYGDYWGQGTLVTVSS
VL: QTVVTQEPSFSVSPGGTVTLTCGLSSGSVTASNYPGWYQQTPGQAPRALIYSTNDRHSGVPDRFSGSISGNKAALTITGAQAEDEADYYCALDIGDITEFGGGTQLTVL

average binding [3]: 112
koff [4]: 0.000234 s⁻¹
B2: Fab 111A7 with the CDR3 methionine changed to D (Fab, V domains shown)
VH: EVQLLESGGGLVQPGGSLRLSCAASGFTFSSYAMSWVRQAPGKGPEWVSRISAGGGSTYYGDSVKGRFTISRDNSKNTLYLQMNSLRAEDTAVYYCANRAGWGDGDYWGQGTLVTVSS
VL: QTVVTQEPSFSVSPGGTVTLTCGLSSGSVTASNYPGWYQQTPGQAPRALIYSTNDRHSGVPDRFSGSISGNKAALTITGAQAEDEADYYCALDIGDITEFGGGTQLTVL

koff [5]: 0.000899 s⁻¹
average binding [6]: 66
B3: Fab 111A7 with the CDR3 methionine changed to P (Fab, V domains shown)
VH: EVQLLESGGGLVQPGGSLRLSCAASGFTFSSYAMSWVRQAPGKGPEWVSRISAGGGSTYYGDSVKGRFTISRDNSKNTLYLQMNSLRAEDTAVYYCANRAGWGPGDYWGQGTLVTVSS
VL: QTVVTQEPSFSVSPGGTVTLTCGLSSGSVTASNYPGWYQQTPGQAPRALIYSTNDRHSGVPDRFSGSISGNKAALTITGAQAEDEADYYCALDIGDITEFGGGTQLTVL

average binding [3]: 109
koff [4]: 0.000205 s⁻¹
B4: Fab 111A7 with the CDR3 methionine changed to G (Fab, V domains shown)
VH: EVQLLESGGGLVQPGGSLRLSCAASGFTFSSYAMSWVRQAPGKGPEWVSRISAGGGSTYYGDSVKGRFTISRDNSKNTLYLQMNSLRAEDTAVYYCANRAGWGGGDYWGQGTLVTVSS
VL: QTVVTQEPSFSVSPGGTVTLTCGLSSGSVTASNYPGWYQQTPGQAPRALIYSTNDRHSGVPDRFSGSISGNKAALTITGAQAEDEADYYCALDIGDITEFGGGTQLTVL

B5: 129D3 (germlined variant of 68F2), full-length IgG1 (antibody, V domains shown)
VH: EVQLQESGPGLVKPSQTLSLTCTVSGGSITSRYYAWSWIRQPPGKGLEWIGVIDYDGDTYYSPSLKSRVSISWDTSKNQFSLKLSSVTPADTAVYYCARDPDVVTGFHYDYWGQGTMVTVSS
VL: QSALTQPPSVSGTPGQSVTISCAGANNDIGTYAYVSWYQQLPGTAPKLMIYKVTTRASGIPDRFSGSKSGNTASLTISGLQAEDEADYYCASYRNFNNAVFGTGTKLTVL
IC50 (read off the curve), B9 cell proliferation [7]: ~0.06 pM
IC50, 7TD1 proliferation assay, exp 22.06 [8]: 0.791 pM
IC50, 7TD1 proliferation assay, exp 29.06 [8]: 0.574 pM
Rel. Potency, 7TD1, exp 29.06 [8]: 0.98
IC50, 7TD1 cells (129D3#A1.1) [9]: 0.25 pM
IC50, 7TD1 cells (129D3U#15.1) [9]: 0.23 pM
Potency relative to 68F2, 7TD1 cells (129D3#A1.1) [9]: 2.65
Potency relative to 68F2, 7TD1 cells (129D3U#15.1) [9]: 2.91

average binding (human IL-6): 286
ratio bact/euk [10]: 1.2
koff [11]: 8.42e-05 s⁻¹
koff [12]: 7.6e-05 s⁻¹
Kd [13]: 220 pM
koff [13]: 4.8e-05 s⁻¹
Kd [14]: 590 pM
koff [14]: 0.00011 s⁻¹
B6: Fab 24A3 (Fab, V domains shown)
VH: QVQVQESGGGLVQPGGSLRLSCAASGFTFSNYAMSWVRQAPGKGLEWVSGISFRGGMISYVDSVKGRFTISRDNAKNTLYLQMNSLKPEDTAVYYCAKNSGSSRSNALDAWGQGTLVTVSS
VL: LNFMLTQPPSVSGSPGQKFTIRCTGSFRSDSYVNWYQQLPGTAPKLLINYDDRRVSGVPSRFSGSKSGNSASLTIDGLQAEDEAEYYCSFWDHTFGGHVFGGGTKLTVLG
notes: Fab; also called 28f10(24A3)

Kd [15]: 19000 pM
koff [15]: 0.00088 s⁻¹
Kd [16]: 14000 pM
koff [16]: 0.00077 s⁻¹
Kd (cynomolgus monkey IL-6 [17]): 14000 pM
koff (cynomolgus monkey IL-6 [17]): 0.00078 s⁻¹
Kd [18]: 43000 pM
koff [18]: 0.0012 s⁻¹
Kd [19]: 6000 pM
koff [19]: 0.00072 s⁻¹
Kd (cynomolgus monkey IL-6 [20]): 620 pM
koff (cynomolgus monkey IL-6 [20]): 0.0007 s⁻¹
Kd [13]: 43000 pM
koff [13]: 0.0012 s⁻¹
Kd [14]: 6000 pM
koff [14]: 0.00072 s⁻¹
B7: Fab 17F10 (Fab, V domains shown)
VH: EVQLQESGPGLVKPSQTLSLTCTVSGGSIATSYYAWSWIRQPPGKGLEWMGVIDYDGDTYYKPSLKSRTSISRDTSKNQFSLQLSSVTPEDTAVYYCARAGLGDSYYLGTYYAMDYWGKGTLVTVSS
VL: QAGLTQPPSVSGSPGKTVTISCAGTTSDVGTGNFVSWYQQLPGMAPKLLIYDVNKRASGIADRFSGSKSGNTASLTISGLQSEDEADYYCASYRSLNNVVFGGGTHLTVLG
notes: Fab; also called 17F10 pur Fab 68 nM

B8: 61H7 (antibody, V domains shown)
VH: EVQLVESGGGLVQPGGSLRLSCAASGFTFSSYRMYWVRQPPGKGLEWVSAISAGGGSTYYGDSVKGRFTISRDNAKNTVYLQMNSLKPEDTAVYYCANRAGWGMGDYWGQGTQVTVSS
VL: QTVVTQEPSLSVSPGGTVTLTCGLSSGSVTASNYPGWFQQTPGQAPRALIYSTNDRHSGVPSRFSGSISGNKAALTITGAQPEDEADYYCALDIGDITEFGGGTHLTVLG
IC50 (read off the curve), B9 cell proliferation [7]: ~1 pM
IC 50, B9 cell proliferation (batch 12.8) [21]: 1.83 pM
IC 50, B9 cell proliferation (batch A8.11) [21]: 1.57 pM
IC50, 7TD1 cells (batch A8.11) [9]: 3.48 pM
Potency relative to 68F2, 7TD1 cells (batch A8.11) [9]: 0.19

koff [22]: 0.000143 s⁻¹
koff [23]: 0.000125 s⁻¹
average binding (human IL-6): 167
ratio bact/euk [24]: 1.14
Ka [25]: 3.7e+09 M⁻¹
Kd [25]: 270 pM
koff [25]: 1.69e-05 s⁻¹
kon [25]: 62700 M⁻¹ s⁻¹
ratio bact/euk [10]: 1.09
koff [11]: 0.000183 s⁻¹
koff [12]: 0.000144 s⁻¹
Kd [13]: 1200 pM
koff [13]: 0.00019 s⁻¹
Kd [14]: 850 pM
koff [14]: 0.00017 s⁻¹
B9: Fab 24D10 (Fab, V domains shown)
VH: QLQVVESGGGLVQPGGSLRLSCAASGFTFSSYAMSWVRQAPGKGPEWVSRISSGGGSTSYADSVKGRFTISRDNAKNTLYLQMNSLKPEDTAVYYCANRAGWGMGDYWGQGTQVTVSS
VL: QTVVTQEPSLSVSPGGTVTLTCGLSSGSVTASNYPGWFQQTPGQAPRALIYSTNDRHSGVPSRFSGSISGNKAALTITGAQPEDEADYYCALDIGDITEFGGGTHLTVLG
notes: Fab; also called pur24d10; 28f12(24D10)

koff [22]: 4.22e-05 s⁻¹
koff [23]: 3.68e-05 s⁻¹
ratio bact/euk [24]: 1.13
B10: Fab 61H7 (Fab, V domains shown)
VH: EVQLVESGGGLVQPGGSLRLSCAASGFTFSSYRMYWVRQPPGKGLEWVSAISAGGGSTYYGDSVKGRFTISRDNAKNTVYLQMNSLKPEDTAVYYCANRAGWGMGDYWGQGTQVTVSS
VL: QTVVTQEPSLSVSPGGTVTLTCGLSSGSVTASNYPGWFQQTPGQAPRALIYSTNDRHSGVPSRFSGSISGNKAALTITGAQPEDEADYYCALDIGDITEFGGGTHLTVLG
notes: Fab; also called pur61H7; 61H7 Fab

B11: B-E8 (IL-6 neutralizing benchmark antibody) (antibody, from another filing, V domains shown)
VH: QVTLKESGPGILKPSQTLSLTCSFSGFSLSTSGMGVGWIRQPSGKGLEWLAHIWWDDDKYYNPSLKSQLTISKDTSRNQVFLKITSVDTADTATYYCARSYDDYLYYALDYWGQGTSVTVSS
VL: DIVMTQSPATLSVTPGDRVSLSCRASQSISDYLHWYQQKSHESPRLLIKSVSQSISGIPSRFSGSGSGSDFTLSINSVEPEDVGVYYCQNGHSFPLTFGAGTKLELK
IC 50, B9 cell proliferation [26]: 5.11 pM
Rel. potency, B9 cells [26]: 0.2
IC50 (read off the curve), B9 cell proliferation [2]: 8 pM
